Starred links: 1 amine or outer side, 2 acyl side, 3 side chain; linkers in the order of their positions; H or OH if unused. Non-standard residues stand in square brackets, D forms with d. Groups on a side chain read outwards from the residue. No end group written: not given here. *: point of attachment. C18 diacid = O=C(O)CCCCCCCCCCCCCCCCC(=O)*; γGlu = O=C(O)[C@H](CCC(=O)[*:2])N[*:1]; AEEA = NCCOCCOCC(=O)O; Aib = CC(C)(N)C(=O)O
T1: CRF1R receptor (anti-target) (UniProt P34998 24-415, limits assumed)
T1 sequence (looked up): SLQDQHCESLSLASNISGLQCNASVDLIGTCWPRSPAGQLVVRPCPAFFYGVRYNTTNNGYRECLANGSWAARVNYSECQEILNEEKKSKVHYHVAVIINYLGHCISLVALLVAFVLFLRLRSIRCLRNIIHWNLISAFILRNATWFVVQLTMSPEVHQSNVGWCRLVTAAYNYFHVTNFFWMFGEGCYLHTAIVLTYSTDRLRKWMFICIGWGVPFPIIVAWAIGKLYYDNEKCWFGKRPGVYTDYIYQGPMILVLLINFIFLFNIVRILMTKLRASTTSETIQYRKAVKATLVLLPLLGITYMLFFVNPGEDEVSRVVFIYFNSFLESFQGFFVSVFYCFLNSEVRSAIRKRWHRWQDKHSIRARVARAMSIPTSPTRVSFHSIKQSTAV


What follows are binders tested against T1, CRF1R receptor (anti-target) (assay: cell-based or functional assay).

EC50 [nM] 0% HSA (cAMP, HTRF) [nM]	Emax (%) (100% = Sauvagine at 100 nM)	Binder
> 100	15.4	IVLSLDVPIKLK([AEEA-AEEA-γGlu-C18 diacid])QILLEQERQK[Aib]QRQQAETNKQILAQV-NH2 (N-terminus assumed; SMILES CC[C@H](C)[C@H](N)C(=O)N[C@H](C(=O)N[C@@H](CC(C)C)C(=O)N[C@@H](CO)C(=O)N[C@@H](CC(C)C)C(=O)N[C@@H](CC(=O)O)C(=O)N[C@H](C(=O)N1CCC[C@H]1C(=O)N[C@H](C(=O)N[C@@H](CCCCN)C(=O)N[C@@H](CC(C)C)C(=O)N[C@@H](CCCCNC(=O)COCCOCCNC(=O)COCCOCCNC(=O)CC[C@H](NC(=O)CCCCCCCCCCCCCCCCC(=O)O)C(=O)O)C(=O)N[C@@H](CCC(N)=O)C(=O)N[C@H](C(=O)N[C@@H](CC(C)C)C(=O)N[C@@H](CC(C)C)C(=O)N[C@@H](CCC(=O)O)C(=O)N[C@@H](CCC(N)=O)C(=O)N[C@@H](CCC(=O)O)C(=O)N[C@@H](CCCNC(=N)N)C(=O)N[C@@H](CCC(N)=O)C(=O)N[C@@H](CCCCN)C(=O)NC(C)(C)C(=O)N[C@@H](CCC(N)=O)C(=O)N[C@@H](CCCNC(=N)N)C(=O)N[C@@H](CCC(N)=O)C(=O)N[C@@H](CCC(N)=O)C(=O)N[C@@H](C)C(=O)N[C@@H](CCC(=O)O)C(=O)N[C@H](C(=O)N[C@@H](CC(N)=O)C(=O)N[C@@H](CCCCN)C(=O)N[C@@H](CCC(N)=O)C(=O)N[C@H](C(=O)N[C@@H](CC(C)C)C(=O)N[C@@H](C)C(=O)N[C@@H](CCC(N)=O)C(=O)N[C@H](C(N)=O)C(C)C)[C@@H](C)CC)[C@@H](C)O)[C@@H](C)CC)[C@@H](C)CC)C(C)C)C(C)C) [peptide of SEQ ID NO: 105]
> 100	1.1	IVLSLDVPIKLK([AEEA-AEEA-γGlu-C18 diacid])QILLKQERQK[Aib]QREKAETNKQILAQV-NH2 (N-terminus assumed; SMILES CC[C@H](C)[C@H](N)C(=O)N[C@H](C(=O)N[C@@H](CC(C)C)C(=O)N[C@@H](CO)C(=O)N[C@@H](CC(C)C)C(=O)N[C@@H](CC(=O)O)C(=O)N[C@H](C(=O)N1CCC[C@H]1C(=O)N[C@H](C(=O)N[C@@H](CCCCN)C(=O)N[C@@H](CC(C)C)C(=O)N[C@@H](CCCCNC(=O)COCCOCCNC(=O)COCCOCCNC(=O)CC[C@H](NC(=O)CCCCCCCCCCCCCCCCC(=O)O)C(=O)O)C(=O)N[C@@H](CCC(N)=O)C(=O)N[C@H](C(=O)N[C@@H](CC(C)C)C(=O)N[C@@H](CC(C)C)C(=O)N[C@@H](CCCCN)C(=O)N[C@@H](CCC(N)=O)C(=O)N[C@@H](CCC(=O)O)C(=O)N[C@@H](CCCNC(=N)N)C(=O)N[C@@H](CCC(N)=O)C(=O)N[C@@H](CCCCN)C(=O)NC(C)(C)C(=O)N[C@@H](CCC(N)=O)C(=O)N[C@@H](CCCNC(=N)N)C(=O)N[C@@H](CCC(=O)O)C(=O)N[C@@H](CCCCN)C(=O)N[C@@H](C)C(=O)N[C@@H](CCC(=O)O)C(=O)N[C@H](C(=O)N[C@@H](CC(N)=O)C(=O)N[C@@H](CCCCN)C(=O)N[C@@H](CCC(N)=O)C(=O)N[C@H](C(=O)N[C@@H](CC(C)C)C(=O)N[C@@H](C)C(=O)N[C@@H](CCC(N)=O)C(=O)N[C@H](C(N)=O)C(C)C)[C@@H](C)CC)[C@@H](C)O)[C@@H](C)CC)[C@@H](C)CC)C(C)C)C(C)C) [peptide of SEQ ID NO: 109]
> 100	5.4	IVLSLDVPIKLK([AEEA-AEEA-γGlu-C18 diacid])QILLKQERQK[Aib]QRQQAETNKQILAQV-NH2 (N-terminus assumed; SMILES CC[C@H](C)[C@H](N)C(=O)N[C@H](C(=O)N[C@@H](CC(C)C)C(=O)N[C@@H](CO)C(=O)N[C@@H](CC(C)C)C(=O)N[C@@H](CC(=O)O)C(=O)N[C@H](C(=O)N1CCC[C@H]1C(=O)N[C@H](C(=O)N[C@@H](CCCCN)C(=O)N[C@@H](CC(C)C)C(=O)N[C@@H](CCCCNC(=O)COCCOCCNC(=O)COCCOCCNC(=O)CC[C@H](NC(=O)CCCCCCCCCCCCCCCCC(=O)O)C(=O)O)C(=O)N[C@@H](CCC(N)=O)C(=O)N[C@H](C(=O)N[C@@H](CC(C)C)C(=O)N[C@@H](CC(C)C)C(=O)N[C@@H](CCCCN)C(=O)N[C@@H](CCC(N)=O)C(=O)N[C@@H](CCC(=O)O)C(=O)N[C@@H](CCCNC(=N)N)C(=O)N[C@@H](CCC(N)=O)C(=O)N[C@@H](CCCCN)C(=O)NC(C)(C)C(=O)N[C@@H](CCC(N)=O)C(=O)N[C@@H](CCCNC(=N)N)C(=O)N[C@@H](CCC(N)=O)C(=O)N[C@@H](CCC(N)=O)C(=O)N[C@@H](C)C(=O)N[C@@H](CCC(=O)O)C(=O)N[C@H](C(=O)N[C@@H](CC(N)=O)C(=O)N[C@@H](CCCCN)C(=O)N[C@@H](CCC(N)=O)C(=O)N[C@H](C(=O)N[C@@H](CC(C)C)C(=O)N[C@@H](C)C(=O)N[C@@H](CCC(N)=O)C(=O)N[C@H](C(N)=O)C(C)C)[C@@H](C)CC)[C@@H](C)O)[C@@H](C)CC)[C@@H](C)CC)C(C)C)C(C)C) [peptide of SEQ ID NO: 110]

Second part, the binder before the results:

Binder	EC50 [nM] 0% HSA (cAMP, HTRF) [nM]	Emax (%) (100% = Sauvagine at 100 nM)
IVLSLDVPIKLK([AEEA-AEEA-γGlu-C18 diacid])QILLKQERQK[Aib]QREQAETNKQILAQV-NH2 (N-terminus assumed; SMILES CC[C@H](C)[C@H](N)C(=O)N[C@H](C(=O)N[C@@H](CC(C)C)C(=O)N[C@@H](CO)C(=O)N[C@@H](CC(C)C)C(=O)N[C@@H](CC(=O)O)C(=O)N[C@H](C(=O)N1CCC[C@H]1C(=O)N[C@H](C(=O)N[C@@H](CCCCN)C(=O)N[C@@H](CC(C)C)C(=O)N[C@@H](CCCCNC(=O)COCCOCCNC(=O)COCCOCCNC(=O)CC[C@H](NC(=O)CCCCCCCCCCCCCCCCC(=O)O)C(=O)O)C(=O)N[C@@H](CCC(N)=O)C(=O)N[C@H](C(=O)N[C@@H](CC(C)C)C(=O)N[C@@H](CC(C)C)C(=O)N[C@@H](CCCCN)C(=O)N[C@@H](CCC(N)=O)C(=O)N[C@@H](CCC(=O)O)C(=O)N[C@@H](CCCNC(=N)N)C(=O)N[C@@H](CCC(N)=O)C(=O)N[C@@H](CCCCN)C(=O)NC(C)(C)C(=O)N[C@@H](CCC(N)=O)C(=O)N[C@@H](CCCNC(=N)N)C(=O)N[C@@H](CCC(=O)O)C(=O)N[C@@H](CCC(N)=O)C(=O)N[C@@H](C)C(=O)N[C@@H](CCC(=O)O)C(=O)N[C@H](C(=O)N[C@@H](CC(N)=O)C(=O)N[C@@H](CCCCN)C(=O)N[C@@H](CCC(N)=O)C(=O)N[C@H](C(=O)N[C@@H](CC(C)C)C(=O)N[C@@H](C)C(=O)N[C@@H](CCC(N)=O)C(=O)N[C@H](C(N)=O)C(C)C)[C@@H](C)CC)[C@@H](C)O)[C@@H](C)CC)[C@@H](C)CC)C(C)C)C(C)C) [peptide of SEQ ID NO: 104]	> 100	3.7
IVLSLDVPIKLK([AEEA-AEEA-γGlu-C18 diacid])QILLKQERQK[Aib]QRQKAETNKQILAQV-NH2 (N-terminus assumed; SMILES CC[C@H](C)[C@H](N)C(=O)N[C@H](C(=O)N[C@@H](CC(C)C)C(=O)N[C@@H](CO)C(=O)N[C@@H](CC(C)C)C(=O)N[C@@H](CC(=O)O)C(=O)N[C@H](C(=O)N1CCC[C@H]1C(=O)N[C@H](C(=O)N[C@@H](CCCCN)C(=O)N[C@@H](CC(C)C)C(=O)N[C@@H](CCCCNC(=O)COCCOCCNC(=O)COCCOCCNC(=O)CC[C@H](NC(=O)CCCCCCCCCCCCCCCCC(=O)O)C(=O)O)C(=O)N[C@@H](CCC(N)=O)C(=O)N[C@H](C(=O)N[C@@H](CC(C)C)C(=O)N[C@@H](CC(C)C)C(=O)N[C@@H](CCCCN)C(=O)N[C@@H](CCC(N)=O)C(=O)N[C@@H](CCC(=O)O)C(=O)N[C@@H](CCCNC(=N)N)C(=O)N[C@@H](CCC(N)=O)C(=O)N[C@@H](CCCCN)C(=O)NC(C)(C)C(=O)N[C@@H](CCC(N)=O)C(=O)N[C@@H](CCCNC(=N)N)C(=O)N[C@@H](CCC(N)=O)C(=O)N[C@@H](CCCCN)C(=O)N[C@@H](C)C(=O)N[C@@H](CCC(=O)O)C(=O)N[C@H](C(=O)N[C@@H](CC(N)=O)C(=O)N[C@@H](CCCCN)C(=O)N[C@@H](CCC(N)=O)C(=O)N[C@H](C(=O)N[C@@H](CC(C)C)C(=O)N[C@@H](C)C(=O)N[C@@H](CCC(N)=O)C(=O)N[C@H](C(N)=O)C(C)C)[C@@H](C)CC)[C@@H](C)O)[C@@H](C)CC)[C@@H](C)CC)C(C)C)C(C)C) [peptide of SEQ ID NO: 108]	> 100	-2
IVLSLDVPIKLK([AEEA-AEEA-γGlu-C18 diacid])QILLEQERQK[Aib]QREQAETNKQILERV-NH2 (N-terminus assumed; SMILES CC[C@H](C)[C@H](N)C(=O)N[C@H](C(=O)N[C@@H](CC(C)C)C(=O)N[C@@H](CO)C(=O)N[C@@H](CC(C)C)C(=O)N[C@@H](CC(=O)O)C(=O)N[C@H](C(=O)N1CCC[C@H]1C(=O)N[C@H](C(=O)N[C@@H](CCCCN)C(=O)N[C@@H](CC(C)C)C(=O)N[C@@H](CCCCNC(=O)COCCOCCNC(=O)COCCOCCNC(=O)CC[C@H](NC(=O)CCCCCCCCCCCCCCCCC(=O)O)C(=O)O)C(=O)N[C@@H](CCC(N)=O)C(=O)N[C@H](C(=O)N[C@@H](CC(C)C)C(=O)N[C@@H](CC(C)C)C(=O)N[C@@H](CCC(=O)O)C(=O)N[C@@H](CCC(N)=O)C(=O)N[C@@H](CCC(=O)O)C(=O)N[C@@H](CCCNC(=N)N)C(=O)N[C@@H](CCC(N)=O)C(=O)N[C@@H](CCCCN)C(=O)NC(C)(C)C(=O)N[C@@H](CCC(N)=O)C(=O)N[C@@H](CCCNC(=N)N)C(=O)N[C@@H](CCC(=O)O)C(=O)N[C@@H](CCC(N)=O)C(=O)N[C@@H](C)C(=O)N[C@@H](CCC(=O)O)C(=O)N[C@H](C(=O)N[C@@H](CC(N)=O)C(=O)N[C@@H](CCCCN)C(=O)N[C@@H](CCC(N)=O)C(=O)N[C@H](C(=O)N[C@@H](CC(C)C)C(=O)N[C@@H](CCC(=O)O)C(=O)N[C@@H](CCCNC(=N)N)C(=O)N[C@H](C(N)=O)C(C)C)[C@@H](C)CC)[C@@H](C)O)[C@@H](C)CC)[C@@H](C)CC)C(C)C)C(C)C) [peptide of SEQ ID NO: 106]	> 100	5.1
